For ten molecules, binding result, Kd and FOB results are on record in patent US20250026827A1 (Alector, published 2025).

B1: SB-50 (antibody, V domains shown)
VH: QVQLVQSGAEVKKPGSSVKVSCKASGGTFSSYAISWVRQAPGQGLEWMGGIIPIFGTANYAQKFQGRVTITADESTSTAYMELSSLRSEDTAVYYCAREGGGHASYHYYGMDVWGQGTTVTVSS
VL: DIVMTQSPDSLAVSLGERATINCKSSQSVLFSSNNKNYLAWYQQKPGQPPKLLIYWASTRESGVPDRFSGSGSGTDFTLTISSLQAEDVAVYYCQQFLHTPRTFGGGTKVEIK
notes: IgG
B2: SB-10 (antibody, V domains shown)
VH: QVQLVQSGAEVKKPGSSVKVSCKASGGTFSSYAISWVRQAPGQGLEWMGGIIPIFGTANYAQKFQGRVTITADESTSTAYMELSSLRSEDTAVYYCARGVPRGDLGMDVWGQGTTVTVSS
VL: not shown
notes: IgG
B3: SB-34 (antibody, V domains shown)
VH: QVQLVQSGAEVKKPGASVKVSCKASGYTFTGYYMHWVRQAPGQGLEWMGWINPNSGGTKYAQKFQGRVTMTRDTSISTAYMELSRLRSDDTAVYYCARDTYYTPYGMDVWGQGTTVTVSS
VL: EIVMTQSPATLSVSPGERATLSCRASQSVSSNLAWYQQKPGQAPRLLIYGASTRATGIPARFSGSGSGTEFTLTISSLQSEDFAVYYCQQDNTFPYTFGGGTKVEIK
notes: IgG
B4: SB-13 (antibody, V domains shown)
VH: QVQLQESGPGLVKPSETLSLTCTVSGGSISSYYWSWIRQPPGKGLEWIGSIYYSGSTNYNPSLKSRVTISVDTSKNQFSLKLSSVTAADTAVYYCARGDTSGGAYFDLWGRGTLVTVSS
VL: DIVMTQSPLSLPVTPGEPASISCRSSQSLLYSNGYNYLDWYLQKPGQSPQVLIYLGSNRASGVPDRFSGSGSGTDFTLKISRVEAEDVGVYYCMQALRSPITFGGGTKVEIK
notes: IgG
B5: SB-5 (antibody, V domains shown)
VH: not shown
VL: EIVLTQSPATLSLSPGERATITCRASQSVSSYLAWYQQKPGQAPRLLIYDASNRATGIPARFSGSGSGTDFTLTISSLEPEDFAVYYCQQRLFHPPTFGGGTKVEIK
notes: IgG
B6: SB-14 (antibody, V domains shown)
VH: QVQLVQSGAEVKKPGSSVKVSCKASGGTFSSYAISWVRQAPGQGLEWMGGIIPIFGTASYAQKFQGRVTITADESTSTAYMELSSLRSEDTAVYYCARDRGGVGFDYWGQGTLVTVSS
VL: B5 VL with L4M, I21L, T22S, A51S, R91F, L92S, F93Y, H94Y, P96I
notes: IgG
B7: SB-41 (antibody, V domains shown)
VH: QLQLQESGPGLVKPSETLSLTCTVSGGSISSSSYYWGWIRQPPGKGLEWIGSIYYSGSTYYNPSLKSRVTISVDTSKNQFSLKLSSVTAADTAVYYCARVGQYPIYGMDVWGQGTTVTVSS
VL: DIQMTQSPSSLSASVGDRVTITCQASQDITNYLNWYQQKPGKAPKLLIYDASNLETGVPSRFSGSGSGTDFTFTISSLQPEDIATYYCQQADNFPYTFGGGTKVEIK
notes: IgG
B8: SB-32 (antibody, V domains shown)
VH: QVQLQESGPGLVKPSETLSLTCTVSGGSISSYYWSWIRQPPGKGLEWIGYIYSSGSTNYNPSLKSRVTISVDTSKNQFSLKLSSVTAADTAVYYCARGDSSSGGLDLWGRGTLVTVSS
VL: not shown
notes: IgG
B9: SB-39 (antibody, V domains shown)
VH: QVQLQESGPGLVKPSETLSLTCAVSGYSISSGYYWAWIRQPPGKGLEWIGSIYHSGSTYYNPSLKSRVTISVDTSKNQFSLKLSSVTAADTAVYYCARGGSNYGDYGRFDYWGQGTLVTVSS
VL: DIQMTQSPSSLSASVGDRVTITCRASQSISSYLNWYQQKPGKAPKLLIYGASSLQSGVPSRFSGSGSGTDFTLTISSLQPEDFATYYCQQSYDFPLTFGGGTKVEIK
notes: IgG
B10: SB-30 (antibody, V domains shown)
VH: QVQLQESGPGLVKPSQTLSLTCTVSGGSISSGGYYWSWIRQHPGKGLEWIGYIYYSGSTVYNPSLKSRVTISVDTSKNQFSLKLSSVTAADTAVYYCAREGPGYPSYFDPWGQGTLVTVSS
VL: EIVLTQSPGTLSLSPGERATLSCRASQSVSSSFLAWYQQKPGQAPRLLIYGASSRATGIPDRFSGSGSGTDFTLTISRLEPEDFAVYYCQQFLSSPWTFGGGTKVENQ
notes: IgG

Residue numbers refer to the chain shown, from its start.
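Wherever FOB is given: antibodies tested at 1 µg/ml for 30 min on ice against receptor-expressing cells, detected with a PE-labelled secondary antibody, read as mean fluorescence intensity relative to background.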

T4 sequence (O00241 30-148 limits assumed): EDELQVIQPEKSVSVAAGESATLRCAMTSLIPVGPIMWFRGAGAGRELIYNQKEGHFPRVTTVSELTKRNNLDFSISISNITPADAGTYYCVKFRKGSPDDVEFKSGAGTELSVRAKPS

In the first assay the target is T1, human SIRPα on cells (human, UniProt P78324 31-504).
T1 construct: Whole entry
In words: flow cytometry.
For B1, the binding result is listed as “no binding (tested: 1 ug/ml)”.
The same measure, in the same setting: the value for B2 was “no binding (tested: 1 ug/ml)”; that for B3 was “no binding (tested: 1 ug/ml)”.
The same measure, in the same setting: the value for B4 was “no binding (tested: 1 ug/ml)”.
The same measure, in the same setting: next, B5: “no binding (tested: 1 ug/ml)”.
On to B6, for which the binding result was “no binding (tested: 1 ug/ml)”.

For another assay, the target named is T2, mouse SIRPβ1 on CHO cells (mouse).
T2 construct: Whole entry
T2 chain: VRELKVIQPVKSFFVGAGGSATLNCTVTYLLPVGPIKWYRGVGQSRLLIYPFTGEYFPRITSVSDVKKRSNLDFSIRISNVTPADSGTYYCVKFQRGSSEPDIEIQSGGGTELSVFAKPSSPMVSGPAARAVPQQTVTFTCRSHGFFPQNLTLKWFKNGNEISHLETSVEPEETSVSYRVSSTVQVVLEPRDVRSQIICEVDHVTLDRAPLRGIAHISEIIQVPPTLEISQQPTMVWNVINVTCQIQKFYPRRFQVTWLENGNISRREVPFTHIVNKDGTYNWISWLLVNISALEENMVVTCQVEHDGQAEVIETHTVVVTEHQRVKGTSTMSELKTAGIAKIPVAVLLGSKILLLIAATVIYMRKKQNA
In words: flow cytometry.
Regarding B7, the binding result was “no binding (tested: 1 ug/ml)”.
The same measure, in the same setting: next, B1: “no binding (tested: 1 ug/ml)”; B8: “no binding (tested: 1 ug/ml)”.
Still for that read-out and setting: the value for B2 was “no binding (tested: 1 ug/ml)”; that for B9 was “no binding (tested: 1 ug/ml)”.
On the same count and under the same terms, the value for B3 was “no binding (tested: 1 ug/ml)”; that for B4 was “no binding (tested: 1 ug/ml)”.
Take B10: the binding result was “no binding (tested: 1 ug/ml)”.
Consider B5, for which the binding result is on record as “no binding (tested: 1 ug/ml)”.
As for B6, the binding result is recorded as “no binding (tested: 1 ug/ml)”.

The next assay has as its target T3, mouse SIRPα on cells (mouse, UniProt P97797 32-513).
T3 construct: whole, on cells
T3 sequence (looked up): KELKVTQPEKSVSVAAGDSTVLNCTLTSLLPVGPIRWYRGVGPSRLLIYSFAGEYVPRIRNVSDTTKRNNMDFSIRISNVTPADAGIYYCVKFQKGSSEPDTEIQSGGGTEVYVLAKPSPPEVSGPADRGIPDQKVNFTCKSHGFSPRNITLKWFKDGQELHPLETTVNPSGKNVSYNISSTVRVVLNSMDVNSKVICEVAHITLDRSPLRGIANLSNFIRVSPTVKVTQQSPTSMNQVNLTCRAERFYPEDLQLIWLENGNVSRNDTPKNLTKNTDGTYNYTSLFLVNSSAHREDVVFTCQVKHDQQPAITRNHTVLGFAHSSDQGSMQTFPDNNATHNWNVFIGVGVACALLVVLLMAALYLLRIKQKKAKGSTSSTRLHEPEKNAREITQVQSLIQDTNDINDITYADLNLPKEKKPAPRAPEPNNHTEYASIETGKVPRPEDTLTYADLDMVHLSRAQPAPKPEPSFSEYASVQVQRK
Description: flow cytometry.
Turning to B7, the binding result is “no binding (tested: 1 ug/ml)”.
On the same count and under the same terms, the value for B1 was “no binding (tested: 1 ug/ml)”; that for B8 was “no binding (tested: 1 ug/ml)”.
Same read-out and setting: next, B2: “no binding (tested: 1 ug/ml)”; B9: “no binding (tested: 1 ug/ml)”; B3: “no binding (tested: 1 ug/ml)”.
Still for that read-out and setting: the value for B4 was “no binding (tested: 1 ug/ml)”.
In the case of B10, the binding result is reported as “no binding (tested: 1 ug/ml)”.
The same measure, in the same setting: next, B5: “no binding (tested: 1 ug/ml)”; B6: “no binding (tested: 1 ug/ml)”.

A further assay addresses T4, human SIRPβ1 domain 1 (D1) Fc fusion (human, UniProt O00241 30-148).
T4 construct: Made in HEK293/T cells with a heterologous signal peptide; also called Human SIRPβ1 D1-Fc; Human SIRPβ1-Fc; not shown: C-terminal human IgG1 Fc
Description: Octet, IgG avid.
As to B7, the dissociation constant (Kd) was 10.3 nM.
In the case of B8, the dissociation constant Kd was 7.13 nM.
Still for that read-out and setting: next, B9: 21.4 nM; B10: 7.87 nM.

A further assay has as its target T1, human SIRPα on cells. In words: flow cytometry. This is another data set of the same source.
Description: (§1) Initial characterization of anti-SIRPβ1 antibodies involved determining their ability to bind cell lines expressing human or mouse SIRPβ1. Cells were harvested, plated at 10⁶/ml in a 96-well plate, washed, and incubated in 100 μl FACS buffer containing 1 μg/ml anti-SIRPβ1 antibody for 0.5 hour on ice. Cells were then washed twice and incubated in 100 μl FACS buffer containing 0.5 μg/ml PE-conjugated secondary antibody for 30 minutes on ice. Cells were washed twice in cold FACS buffer and acquired on a BD FACS Canto. Data analysis and calculation of mean fluorescence intensity (MFI) values or 00 positive cells was performed with FlowJo (TreeStar) software version 10.0.7.
(§2) As a negative control, the anti-SIRPβ1 antibodies were also screened for surface binding to CHO cells overexpressing recombinant mouse SIRPβ31. […] Given the high sequence similarity between receptors of the SIRPβ family, anti-SIRPβ1 antibodies were also screened for cross-reactivity to human and mouse SIRPα.
In turn, B7 registered an FOB of 2.2 fold over background.
Molecule B1 gave an FOB of 2.5 fold over background.
The same measure, in the same setting: next, B8: 2.2 fold over background; B2: 2.4 fold over background; B9: 2 fold over background.
On the same count and under the same terms, next, B3: 2 fold over background; B4: 1.9 fold over background.
The same measure, in the same setting: the value for B10 was 2.1 fold over background.
Molecule B5 yielded an FOB of 2 fold over background.
Take B6: the FOB was determined as 2.5 fold over background.

The target in another assay is T5, human SIRPβ1 isoform 1 on cells (human, UniProt O00241 30-398).
T5 construct: On CHO cells (low level), on BWZ/BW5147.G.1.4 cells (reporter cells co-express human DAP12) or on primary human myeloid cells; also called huSIRPβ1; BWZ-huSIRPβ1
T5 sequence (O00241 30-398): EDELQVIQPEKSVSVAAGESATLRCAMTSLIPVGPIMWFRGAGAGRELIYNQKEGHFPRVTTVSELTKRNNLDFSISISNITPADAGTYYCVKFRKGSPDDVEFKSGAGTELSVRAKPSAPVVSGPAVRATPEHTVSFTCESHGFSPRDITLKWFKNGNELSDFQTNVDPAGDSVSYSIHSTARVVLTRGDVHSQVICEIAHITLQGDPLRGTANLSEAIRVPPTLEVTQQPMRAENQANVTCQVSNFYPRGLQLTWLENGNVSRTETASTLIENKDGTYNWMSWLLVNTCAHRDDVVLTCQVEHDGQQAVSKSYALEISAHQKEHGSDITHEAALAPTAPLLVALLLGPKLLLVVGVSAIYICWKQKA
Description: flow cytometry.
Description: as §1, §2
As to B7, the FOB is 1.7 fold over background.
Same read-out and setting: next, B1: 2.8 fold over background; B8: 1.5 fold over background; B2: 3.8 fold over background.
The same measure, in the same setting: next, B9: 5 fold over background; B3: 1.8 fold over background; B4: 1.9 fold over background.
The same measure, in the same setting: next, B10: 1.7 fold over background; B5: 1.6 fold over background.
On to B6, for which the FOB was determined as 4.5 fold over background.

The target in another assay is T2, mouse SIRPβ1 on CHO cells. In words: flow cytometry. The source holds these as a separate data set.
Description: as §1, §2
B7 displayed an FOB of 1.3 fold over background.
Same read-out and setting: the value for B1 was 1.2 fold over background; that for B8 was 1.2 fold over background; that for B2 was 1.4 fold over background.
On the same count and under the same terms, the value for B9 was 1.4 fold over background; that for B3 was 1.2 fold over background.
Still for that read-out and setting: next, B4: 1.2 fold over background.
Regarding B10, the FOB was 1.4 fold over background.
Regarding B5, the FOB worked out at 1.3 fold over background.
On the same count and under the same terms, next, B6: 1.3 fold over background.

The next assay deals with T3, mouse SIRPα on cells. Description: flow cytometry. The source holds these as a separate data set.
Description: as §1, §2
Turning to B7, the FOB stood at 1.7 fold over background.
B1 came in with an FOB of 1.7 fold over background.
Consider B8, for which the FOB worked out at 1.2 fold over background.
On to B2, for which the FOB turned out to be 1 fold over background.
The same measure, in the same setting: next, B9: 1.1 fold over background.
The same measure, in the same setting: the value for B3 was 1.3 fold over background; that for B4 was 0.9 fold over background.
Molecule B10 returned an FOB of 1.5 fold over background.
As for B5, the FOB turned out to be 1.5 fold over background.
In turn, B6 showed an FOB of 1.2 fold over background.

The next assay concerns the target T6, mouse SIRPα D1-Fc (mouse, UniProt P97797 32-150, limits assumed).
T6 construct: domain: D1
T6 sequence (looked up): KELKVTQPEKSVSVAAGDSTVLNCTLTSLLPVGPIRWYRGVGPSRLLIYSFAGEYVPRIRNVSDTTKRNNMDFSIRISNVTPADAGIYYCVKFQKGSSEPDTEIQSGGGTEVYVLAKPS
Description: Octet.
As to B7, the binding result is reported as “no binding (tested: 100 nM)”.
With B1, the binding result is recorded as “no binding (tested: 100 nM)”.
Same read-out and setting: next, B8: “no binding (tested: 100 nM)”; B2: “no binding (tested: 100 nM)”; B9: “no binding (tested: 100 nM)”.
The same measure, in the same setting: the value for B3 was “no binding (tested: 100 nM)”.
Still for that read-out and setting: next, B4: “no binding (tested: 100 nM)”.
B10: the binding result is “no binding (tested: 100 nM)”.
For the molecule B5, the binding result is recorded as “no binding (tested: 100 nM)”.
On the same count and under the same terms, the value for B6 was “no binding (tested: 100 nM)”.

The target in the next assay is T7, human SIRPα domain 1 (D1) Fc fusion (human, UniProt P78324 32-149).
T7 construct: also called human SIRPα D1-Fc; Human SIRPα Fc; not shown: C-terminal human IgG1 Fc
In words: Octet.
With B1, the binding result is recorded as “no binding (tested: 100 nM)”.
Still for that read-out and setting: next, B2: “no binding (tested: 100 nM)”.
Still for that read-out and setting: the value for B3 was “no binding (tested: 100 nM)”.
Still for that read-out and setting: the value for B4 was “no binding (tested: 100 nM)”; that for B5 was “no binding (tested: 100 nM)”.
For the molecule B6, the binding result is “no binding (tested: 100 nM)”.
